Source: the RNAGym collection of RNA variant scans (doi:10.7554/elife.80360)

B1: HDV Ribozyme (parent)
chain: GGCCGGCAUGGUCCCAGCCUCCUCGCUGGCGCCGGCUGGGCAACAUUCCGAGGGGACCGUCCCCUCGGUAAUGGCGAAUGGGACCCA

Variants of: B1
Test: self-cleavage, relative activity (ratio to wild type); higher = more cleavage; co-transcriptional

| Variant | self-cleavage |
| --- | --- |
| GGCCGGCAUGGCCCCAGCCUCCUCGCUGGCGCCGGCUGGGCAACAUUCCGAGGGGACCGUCCCCUCGGUAAUGGCGAAUGGGACCUA [U12C C86U] | 0.578 |
| GGCCGGCAUGGCCCCAGCCUCCUCGCUAGCGCCGGCUGGGCAACAUUCCGAGGGGACCGUCCCCUCGGUAAUGGCGAAUGGGACCCA [U12C G28A] | 0.0707 |
| GGCCGGCAUGGCCCCAGCCUCCUCGCUCGCGCCGGCUGGGCAACAUUCCGAGGGGACCGUCCCCUCGGUAAUGGCGAAUGGGACCCA [U12C G28C] | 0 |
| GGCCGGCAUGGCCCCAGCCUCCUCGCUGGCGCCGGCUGUGCAACAUUCCGAGGGGACCGUCCCCUCGGUAAUGGCGAAUGGGACCCA [U12C G39U] | 0.0723 |
| GGCCGGCAUGGCCCCAGCCUCCUCGCUGGCGCCGGCUGGGCAACAUUUCGAGGGGACCGUCCCCUCGGUAAUGGCGAAUGGGACCCA [U12C C48U] | 0.534 |
| GGCCGGCAUGGCCCCAGCCUCCUCGCUGGCGCCGGCUGGGCAACAUUCCGAGGGGACCGUCCCCUCGGUAAUGGCAAAUGGGACCCA [U12C G76A] | 0.344 |
| GGCCGGCAUGGCCCCAGCCUCCUCGCUGGCGCCGGCUGGCCAACAUUCCGAGGGGACCGUCCCCUCGGUAAUGGCGAAUGGGACCCA [U12C G40C] | 0.0405 |
| GGCCGGCAUGGCCCCAGCCUCCUCUCUGGCGCCGGCUGGGCAACAUUCCGAGGGGACCGUCCCCUCGGUAAUGGCGAAUGGGACCCA [U12C G25U] | 0.0369 |
| GGCCGGCAUGGCCCCAGCCUCCUCGCUGGCGCCGGCUGGGCAACAUUCCGAGGGGAACGUCCCCUCGGUAAUGGCGAAUGGGACCCA [U12C C57A] | 0.268 |
| GGCCGGCAUGGCCCCAGCCUCCUCGCUGGCGCCGGCUGGGCAACAUUCCGAGGCGACCGUCCCCUCGGUAAUGGCGAAUGGGACCCA [U12C G54C] | 0.356 |
| GGCCGGCAUGGCCCCAGCCUCCUCGCUGGCGCCGGCUGGGCAACAUUCCGAGGGGACCGUCCCCUCGGUAAUGGCGAAUGGGAGCCA [U12C C84G] | 0.391 |
| GGCCGGCAUGGCCCCAGCCUCCUCGCUGGCGCAGGCUGGGCAACAUUCCGAGGGGACCGUCCCCUCGGUAAUGGCGAAUGGGACCCA [U12C C33A] | 0.0386 |
| GGCCGGCAUGGCCCCAGCCUCCUCGCUGGCGCCGGCUGGGAAACAUUCCGAGGGGACCGUCCCCUCGGUAAUGGCGAAUGGGACCCA [U12C C41A] | 0.388 |
| GGCCGGCAUGGCCCCAGCCUCCUCGCUGGCGCCGGCUGGGUAACAUUCCGAGGGGACCGUCCCCUCGGUAAUGGCGAAUGGGACCCA [U12C C41U] | 0.415 |
| GGCCGGCAUGGCCCCAGCCUCCUCGCUGGCGCCGGCUGGGCAACAUUCCGAGGGCACCGUCCCCUCGGUAAUGGCGAAUGGGACCCA [U12C G55C] | 0.447 |
| GGCCGGCAUGGCCCCAGCCUCCUCGCUGGCGCCGGCUGGGCAACAUUCAGAGGGGACCGUCCCCUCGGUAAUGGCGAAUGGGACCCA [U12C C49A] | 0.322 |

| Variant | self-cleavage |
| --- | --- |
| GGCCGGCAUGGCCCCAGCCUCCUCGCUGGCGCCGGCUGGGCAACAUUCUGAGGGGACCGUCCCCUCGGUAAUGGCGAAUGGGACCCA [U12C C49U] | 0.166 |
| GGCCGGCAUGGCCCCAGCCUCCUCGCUGGCGCCGGCUGGGCAACAUUCGGAGGGGACCGUCCCCUCGGUAAUGGCGAAUGGGACCCA [U12C C49G] | 0.199 |
| GGCCGGCAUGGCCCCAGCCUCCUCGCUGGCGCCCGCUGGGCAACAUUCCGAGGGGACCGUCCCCUCGGUAAUGGCGAAUGGGACCCA [U12C G34C] | 0.115 |
| GGCCGGCAUGGCCCCAGCCUCCUCGCUGGCGCCGGCUGGGCAACAUUCCGAGGGGACCGUGCCCUCGGUAAUGGCGAAUGGGACCCA [U12C C61G] | 0.32 |
| GGCCGGCAUGGCCCCAGCCUCCUCGCUGGCGCCGGCUGGGCAACAUUCCGAGGGGACCGUUCCCUCGGUAAUGGCGAAUGGGACCCA [U12C C61U] | 0.404 |
| GGCCGGCAUGGCCCCAGCCUCCUCGCUGGCGCCGCCUGGGCAACAUUCCGAGGGGACCGUCCCCUCGGUAAUGGCGAAUGGGACCCA [U12C G35C] | 0.0923 |
| GGCCGGCAUGGCCCCAGCCUCCUCGCUGGCGCCGGCUGGGCAACAUUCCGAGGGGACCAUCCCCUCGGUAAUGGCGAAUGGGACCCA [U12C G59A] | 0.185 |
| GGCCGGCAUGGCCCCAACCUCCUCGCUGGCGCCGGCUGGGCAACAUUCCGAGGGGACCGUCCCCUCGGUAAUGGCGAAUGGGACCCA [U12C G17A] | 0.312 |
| GGCCGGCAUGGCCCCAGCCUCCUCGCUGGCGCCGGCUGGGCAACAUUCCGAGCGGACCGUCCCCUCGGUAAUGGCGAAUGGGACCCA [U12C G53C] | 0.332 |
| GGCCGGCAUGGCCCCAGCCUCCUCGCUGGCGCCGGGUGGGCAACAUUCCGAGGGGACCGUCCCCUCGGUAAUGGCGAAUGGGACCCA [U12C C36G] | 0.128 |
| GGCCGGCAUGGCCCCAGCCUCCUCGCUGGCGCCGGCUGGGCAACAUUCCGAGGGGACAGUCCCCUCGGUAAUGGCGAAUGGGACCCA [U12C C58A] | 0.475 |
| GGCCGGCAUGGCCCCAGCCUCCUCGCUGGCGCCGGCUGGGCAACAUUCCGAGGGGACCGUCCCGUCGGUAAUGGCGAAUGGGACCCA [U12C C64G] | 0.308 |
| GGCCGGCAUGGCCCCAGCCUCCUCGCUGGCGCCGGCUGGGCAACAUUCCGAGGGGACCGUCCCCUCGGUAAUUGCGAAUGGGACCCA [U12C G73U] | 0.0811 |
| GGCCGGCAUGGCCCCAGCCUCCUCGCUGGCGACGGCUGGGCAACAUUCCGAGGGGACCGUCCCCUCGGUAAUGGCGAAUGGGACCCA [U12C C32A] | 0.256 |
| GGCCGGCAUGGCCCCAGCCUCCUCGCUGGCGCCGGCUGGGCAACAUUCCGAGGGGACCGUCCCCUCGGUAAUGGCGAAUGGGACGCA [U12C C85G] | 0.447 |
| GGCCGGCAUGGCCCCAGCCUCCUCGCUGGCGCCGGCUGGGCAACAUUCCGACGGGACCGUCCCCUCGGUAAUGGCGAAUGGGACCCA [U12C G52C] | 0.287 |
